# Experimental data published in patent publication US20240216425A1, “Engineered Macrophages for Cancer Immunotherapy” (The Trustees of the University of Pennsylvania, priority 2022, published 2024).
# “Also recorded” adds a separate entry of the source. Like-named read-outs stand apart in the source and are kept apart here.
# B1: IL-4: interleukin-4 cytokine used to prime macrophages (BioLegend 574302) (protein, UniProt P07750 21-140, looked up)
# Interleukin-4: HIHGCDKNHLREIIGILNEVTGEGTPCTEMDVPNVLTATKNTTESELVCRASKVLRIFYLKHGKTPCLKKNSSVLMELQRLFRAFRCLDSSISCTMNESKSTSLKDFLESLKSIMQMDYS
# B2: IFNγ: interferon-γ cytokine used to prime macrophages (BioLegend 575302) (protein, UniProt P01580 23-155, looked up)
# Interferon gamma: HGTVIESLESLNNYFNSSGIDVEEKSLFLDIWRNWQKDGDMKILQSQIISFYLRLFEVLKDNQAISNNISVIESHLITTFFSNSKAKKDAFMSIAKFEVNNPQVQRQAFNELIRVVHQLLPESSLRKRKRSRC
# Tests used:
# [1] = tested on: macrophages in CD47 KO tumoroids; experiment: Macrophage clustering in tumoroids (entropy image analysis, radial profiles, cluster area); type: cell-based, mouse; details: 2 mM chelator added ~24 h after macrophages and anti-Tyrp1, read 3 h later
# Experimental: Tumoroids. To generate surfaces conducive to B16 tumoroid formation, 96-well plates (Greiner Bio-One 650161) were either coated with 70 μL of 2% agarose in water or PBS or, more commonly, treated for 20 min with 100 μL of anti-adherence rinsing solution (StemCell Technologies 07010). The wells were washed with PBS, and then blocked with 0.5-1% (w/v) bovine serum albumin (BSA, Sigma) 37° ° C. for 1 h. B16 were detached by brief trypsinization, resuspended in RPMI supplemented with 10% FBS, 1× non-essential amino acid solution (Gibco 11140050) and 1 mM sodium pyruvate (Gibco 11360070) at a concentration of 1×103 or 1×10^4 per mL, and added to passivated wells in a volume of 100 μL. […] For tumoroid disaggregation studies, EDTA and EGTA were added in PBS to obtain a final concentration of 2 mM, and in some cases magnesium sulphate was also added for a final concentration of 5 mM Mg2+. Latrunculin A (Invitrogen L12370) dissolved at 1 μM in DMSO was further diluted in PBS and added to obtain a final concentration of 1 μM. […] Tumoroid areas were measured in Fiji/ImageJ after thresholding GFP fluorescence using built-in thresholding algorithms and manually adjusting the threshold as needed.
# B16 tumoroids = type: cell-based, mouse
# Experimental: Tumoroids. To generate surfaces conducive to B16 tumoroid formation, 96-well plates (Greiner Bio-One 650161) were either coated with 70 μL of 2% agarose in water or PBS or, more commonly, treated for 20 min with 100 μL of anti-adherence rinsing solution (StemCell Technologies 07010). The wells were washed with PBS, and then blocked with 0.5-1% (w/v) bovine serum albumin (BSA, Sigma) 37° ° C. for 1 h. B16 were detached by brief trypsinization, resuspended in RPMI supplemented with 10% FBS, 1× non-essential amino acid solution (Gibco 11140050) and 1 mM sodium pyruvate (Gibco 11360070) at a concentration of 1×103 or 1×10^4 per mL, and added to passivated wells in a volume of 100 μL. […] For tumoroid disaggregation studies, EDTA and EGTA were added in PBS to obtain a final concentration of 2 mM, and in some cases magnesium sulphate was also added for a final concentration of 5 mM Mg2+. Latrunculin A (Invitrogen L12370) dissolved at 1 μM in DMSO was further diluted in PBS and added to obtain a final concentration of 1 μM. For phagocytosis versus growth studies, CellTracker Deep Red-labeled BMDMs and antibodies (final concentration 20 μg/mL anti-Tyrp1 and/or 20 μg/mL anti-CD47 or 10 μg/mL anti-SIRPα) or mouse serum (final concentration 1:200) were added 24 h later in a volume of 20 μL RPMI growth media with 120 ng/mL M-CSF. For myosin-II inhibition studies, 20 μM blebbistatin (MilliporeSigma 203389) or an equal volume of DMSO vehicle was added to B16 tumoroids for 1 h prior to addition of BMDMs. Tumoroids were imaged on the Olympus IX microscope with 20×/0.4 NA, 10×/0.3 NA, or 4×/0.13 NA objectives. Tumoroid areas were measured in Fiji/ImageJ after thresholding GFP fluorescence using built-in thresholding algorithms and manually adjusting the threshold as needed.
# CD47 KO B16 tumoroids = experiment: Immuno-tumoroid growth with bone marrow-derived macrophages; type: cell-based, mouse; details: for tumoroid elimination and macrophage clusters: macrophages pre-treated with cytokine (20 ng/mL, 48 h)
# Experimental: Tumoroids. To generate surfaces conducive to B16 tumoroid formation, 96-well plates (Greiner Bio-One 650161) were either coated with 70 μL of 2% agarose in water or PBS or, more commonly, treated for 20 min with 100 μL of anti-adherence rinsing solution (StemCell Technologies 07010). The wells were washed with PBS, and then blocked with 0.5-1% (w/v) bovine serum albumin (BSA, Sigma) 37° ° C. for 1 h. B16 were detached by brief trypsinization, resuspended in RPMI supplemented with 10% FBS, 1× non-essential amino acid solution (Gibco 11140050) and 1 mM sodium pyruvate (Gibco 11360070) at a concentration of 1×103 or 1×10^4 per mL, and added to passivated wells in a volume of 100 μL. A single aggregate of B16 cells formed in each well, typically within 12 h. For tumoroid disaggregation studies, EDTA and EGTA were added in PBS to obtain a final concentration of 2 mM, and in some cases magnesium sulphate was also added for a final concentration of 5 mM Mg2+. Latrunculin A (Invitrogen L12370) dissolved at 1 μM in DMSO was further diluted in PBS and added to obtain a final concentration of 1 μM. For phagocytosis versus growth studies, CellTracker Deep Red-labeled BMDMs and antibodies (final concentration 20 μg/mL anti-Tyrp1 and/or 20 μg/mL anti-CD47 or 10 μg/mL anti-SIRPα) or mouse serum (final concentration 1:200) were added 24 h later in a volume of 20 μL RPMI growth media with 120 ng/mL M-CSF. For myosin-II inhibition studies, 20 μM blebbistatin (MilliporeSigma 203389) or an equal volume of DMSO vehicle was added to B16 tumoroids for 1 h prior to addition of BMDMs. Tumoroids were imaged on the Olympus IX microscope with 20×/0.4 NA, 10×/0.3 NA, or 4×/0.13 NA objectives. Tumoroid areas were measured in Fiji/ImageJ after thresholding GFP fluorescence using built-in thresholding algorithms and manually adjusting the threshold as needed.
# Statistical analysis and curve fitting. Statistical analyses and curve fitting were performed in Prism v8.4-v9.4 (GraphPad) and MATLAB R2020a (MathWorks). Details for each analysis are provided in figure legends, and exact p values are provided. […]
# [2] = biological target: CD47 on B16-F10 mouse melanoma cells (also on RM-9 mouse prostate cancer cells) (mouse) (UniProt Q61735); experiment: flow cytometry titration on B16 cells, secondary antibody AF647, median fluorescence fit to y=A*x/(K+x); apparent K on cells
# [3] = biological target: Tyrp1 (tyrosinase-related protein 1) on B16-F10 mouse melanoma cells (mouse) (UniProt P07147); experiment: as above
# macrophage monocultures = experiment: Macrophage monocultures on non-adhesive surfaces, clustering; type: cell-based, mouse; details: 20 ng/mL cytokine
# Experimental: Bone marrow-derived macrophages (BMDMs). Bone marrow was harvested from donor mice, lysed with ACK buffer (Gibco A1049201) to deplete red blood cells, and cultured on Petri dishes for 7 days in IMDM (Gibco 12440053) supplemented with 10% FBS, 1% P/S, and 20 ng/ml recombinant mouse macrophage colony-stimulating factor (M-CSF, BioLegend 576406). Successful differentiation was confirmed by flow cytometry staining with antibodies against macrophage markers. Cytokine-primed BMDMs were cultured in RPMI growth media+20 ng/ml M-CSF+20 ng/mL IFNγ (BioLegend 575302) or 20 ng/ml IL-4 (BioLegend 574302) for 48 h prior to use in tumoroid assays or prior to analysis of protein expression by flow cytometry. […]
# Entropy image analysis. Fluorescence images of CellTracker Deep Red-labeled macrophages were converted to binary images of black cells on a white background using the Otsu threshold algorithm in ImageJ. The number of dark pixels was determined from the image histogram, and the image was saved as a PNG file, which is a form of lossless file compression to determine the compressed file size as a measure of entropy. Random and structured images were generated and analyzed using the Python NumPy and PIL/Pillow packages, respectively.
# [4] = 2 mM EDTA or EGTA, 1 μM Latrunculin A
# Chain of UniProt Q61735 (Q61735 19-303): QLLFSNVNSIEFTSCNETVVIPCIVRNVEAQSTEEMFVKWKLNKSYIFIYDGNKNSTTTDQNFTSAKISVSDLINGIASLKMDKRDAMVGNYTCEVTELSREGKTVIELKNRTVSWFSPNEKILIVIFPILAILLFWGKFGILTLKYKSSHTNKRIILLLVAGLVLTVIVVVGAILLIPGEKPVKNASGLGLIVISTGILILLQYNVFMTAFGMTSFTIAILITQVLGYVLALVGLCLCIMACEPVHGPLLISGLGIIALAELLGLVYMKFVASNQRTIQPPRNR
# Chain of UniProt P07147 (P07147 25-537): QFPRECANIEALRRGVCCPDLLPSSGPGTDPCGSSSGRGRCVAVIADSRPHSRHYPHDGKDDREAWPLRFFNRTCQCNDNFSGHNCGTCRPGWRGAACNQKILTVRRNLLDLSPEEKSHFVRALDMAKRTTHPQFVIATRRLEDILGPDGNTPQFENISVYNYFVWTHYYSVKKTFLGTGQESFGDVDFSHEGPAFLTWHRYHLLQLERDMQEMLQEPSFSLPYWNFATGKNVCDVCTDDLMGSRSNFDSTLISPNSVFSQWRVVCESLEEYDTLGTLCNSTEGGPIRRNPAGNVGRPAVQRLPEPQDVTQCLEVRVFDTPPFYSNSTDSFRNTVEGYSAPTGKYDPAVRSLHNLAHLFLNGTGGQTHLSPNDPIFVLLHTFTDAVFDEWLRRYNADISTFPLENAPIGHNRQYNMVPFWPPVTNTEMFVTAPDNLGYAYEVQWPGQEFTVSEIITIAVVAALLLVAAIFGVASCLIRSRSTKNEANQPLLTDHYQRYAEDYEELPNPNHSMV
molecule,measurement,setting,value
O=C(O)CN(CCN(CC(=O)O)CC(=O)O)CC(=O)O [EDTA],macrophage cluster projected area / disaggregation of macrophages,[1],rapid disaggregation of macrophages; also recorded: increases significantly
same,tumoroid projected area / B16 aggregates,B16 tumoroids,rapid (<1 h) increase
O=C(O)CN(CCOCCOCCN(CC(=O)O)CC(=O)O)CC(=O)O [EGTA],tumoroid projected area / B16 aggregates,B16 tumoroids; [4],did disrupt B16 aggregates; also recorded: rapid (<1 h) increase
C/C1=C/C(=O)O[C@@H]2C[C@@H](CC[C@H](C)/C=C\C=C\CC1)O[C@@](O)([C@@H]1CSC(=O)N1)C2 [Latrunculin A],tumoroid projected area / B16 aggregates,B16 tumoroids; [4],rapid (<1 h) increase
Cc1ccc2c(c1)C(=O)C1(O)CCN(c3ccccc3)C1=N2 (centres unmarked) [blebbistatin],tumoroid growth repression by macrophages,CD47 KO B16 tumoroids; 20 μM,not affected
anti-mouse CD47 clone MIAP301 (BioXCell BE0270) (antibody),Kd,[2],25 nM
anti-mouse/human Tyrp1 clone TA99 (BioXCell BE0151) (antibody),Kd,[3],47 nM
B1,macrophage clustering in monoculture,macrophage monocultures,disperse
same,tumoroid elimination and macrophage clusters,CD47 KO B16 tumoroids,has the opposite effects and disperses macrophages
B2,macrophage clustering in monoculture,macrophage monocultures,cluster
same,tumoroid elimination and macrophage clusters,CD47 KO B16 tumoroids,promoted
